Starred links: 1 amine or outer side, 2 acyl side, 3 side chain; linkers in the order of their positions; H or OH if unused. Non-standard residues stand in square brackets, D forms with d. Groups on a side chain read outwards from the residue. No end group written: not given here. *: point of attachment. C20 diacid = O=C(O)CCCCCCCCCCCCCCCCCCC(=O)*; C18 diacid = O=C(O)CCCCCCCCCCCCCCCCC(=O)*; γGlu = O=C(O)[C@H](CCC(=O)[*:2])N[*:1]; αMeF = C[C@](N)(Cc1ccccc1)C(=O)O; AEEA = NCCOCCOCC(=O)O; Aib = CC(C)(N)C(=O)O
Key:
[1] = target: human GLP-1 receptor (human, UniProt P43220); assay: cell-based or functional assay
[2] = target: human glucagon receptor (human, UniProt P47871); assay: cell-based or functional assay

| cAMP production EC50 [1] [nM] | cAMP production EC50 [2] [nM] | Binder |
| --- | --- | --- |
| 0.146 | 0.738 | H[Aib]QGTFTSDVSK[αMeF]LEAK([AEEA-AEEA-γGlu-γGlu-C18 diacid])AAREFIAWLLET-NH2 (N-terminus assumed; SMILES CC[C@H](C)[C@H](NC(=O)[C@H](Cc1ccccc1)NC(=O)[C@H](CCC(=O)O)NC(=O)[C@H](CCCNC(=N)N)NC(=O)[C@H](C)NC(=O)[C@H](C)NC(=O)[C@H](CCCCNC(=O)COCCOCCNC(=O)COCCOCCNC(=O)CC[C@H](NC(=O)CC[C@H](NC(=O)CCCCCCCCCCCCCCCCC(=O)O)C(=O)O)C(=O)O)NC(=O)[C@H](C)NC(=O)[C@H](CCC(=O)O)NC(=O)[C@H](CC(C)C)NC(=O)[C@](C)(Cc1ccccc1)NC(=O)[C@H](CCCCN)NC(=O)[C@H](CO)NC(=O)[C@@H](NC(=O)[C@H](CC(=O)O)NC(=O)[C@H](CO)NC(=O)[C@@H](NC(=O)[C@H](Cc1ccccc1)NC(=O)[C@@H](NC(=O)CNC(=O)[C@H](CCC(N)=O)NC(=O)C(C)(C)NC(=O)[C@@H](N)Cc1c[nH]cn1)[C@@H](C)O)[C@@H](C)O)C(C)C)C(=O)N[C@@H](C)C(=O)N[C@@H](Cc1c[nH]c2ccccc12)C(=O)N[C@@H](CC(C)C)C(=O)N[C@@H](CC(C)C)C(=O)N[C@@H](CCC(=O)O)C(=O)N[C@H](C(N)=O)[C@@H](C)O) [Peptide 517] |
| 0.0452 | 0.509 | H[Aib]QGTFTSDVSK[αMeF]LDSK([γGlu-γGlu-AEEA-AEEA-γGlu-γGlu-C18 diacid])RARDFVRWLLE[Aib]G-OH (N-terminus assumed; SMILES CC(C)C[C@H](NC(=O)[C@H](Cc1c[nH]c2ccccc12)NC(=O)[C@H](CCCNC(=N)N)NC(=O)[C@@H](NC(=O)[C@H](Cc1ccccc1)NC(=O)[C@H](CC(=O)O)NC(=O)[C@H](CCCNC(=N)N)NC(=O)[C@H](C)NC(=O)[C@H](CCCNC(=N)N)NC(=O)[C@H](CCCCNC(=O)CC[C@H](NC(=O)CC[C@H](NC(=O)COCCOCCNC(=O)COCCOCCNC(=O)CC[C@H](NC(=O)CC[C@H](NC(=O)CCCCCCCCCCCCCCCCC(=O)O)C(=O)O)C(=O)O)C(=O)O)C(=O)O)NC(=O)[C@H](CO)NC(=O)[C@H](CC(=O)O)NC(=O)[C@H](CC(C)C)NC(=O)[C@](C)(Cc1ccccc1)NC(=O)[C@H](CCCCN)NC(=O)[C@H](CO)NC(=O)[C@@H](NC(=O)[C@H](CC(=O)O)NC(=O)[C@H](CO)NC(=O)[C@@H](NC(=O)[C@H](Cc1ccccc1)NC(=O)[C@@H](NC(=O)CNC(=O)[C@H](CCC(N)=O)NC(=O)C(C)(C)NC(=O)[C@@H](N)Cc1c[nH]cn1)[C@@H](C)O)[C@@H](C)O)C(C)C)C(C)C)C(=O)N[C@@H](CC(C)C)C(=O)N[C@@H](CCC(=O)O)C(=O)NC(C)(C)C(=O)NCC(=O)O) [Peptide 136] |
| 0.297 | 2.66 | H[Aib]QGTFTSDVSK[αMeF]LDTK([AEEA-AEEA-γGlu-C20 diacid])AARDFVQWLLE[Aib]G-NH2 (N-terminus assumed; SMILES CC(C)C[C@H](NC(=O)[C@H](Cc1c[nH]c2ccccc12)NC(=O)[C@H](CCC(N)=O)NC(=O)[C@@H](NC(=O)[C@H](Cc1ccccc1)NC(=O)[C@H](CC(=O)O)NC(=O)[C@H](CCCNC(=N)N)NC(=O)[C@H](C)NC(=O)[C@H](C)NC(=O)[C@H](CCCCNC(=O)COCCOCCNC(=O)COCCOCCNC(=O)CC[C@H](NC(=O)CCCCCCCCCCCCCCCCCCC(=O)O)C(=O)O)NC(=O)[C@@H](NC(=O)[C@H](CC(=O)O)NC(=O)[C@H](CC(C)C)NC(=O)[C@](C)(Cc1ccccc1)NC(=O)[C@H](CCCCN)NC(=O)[C@H](CO)NC(=O)[C@@H](NC(=O)[C@H](CC(=O)O)NC(=O)[C@H](CO)NC(=O)[C@@H](NC(=O)[C@H](Cc1ccccc1)NC(=O)[C@@H](NC(=O)CNC(=O)[C@H](CCC(N)=O)NC(=O)C(C)(C)NC(=O)[C@@H](N)Cc1c[nH]cn1)[C@@H](C)O)[C@@H](C)O)C(C)C)[C@@H](C)O)C(C)C)C(=O)N[C@@H](CC(C)C)C(=O)N[C@@H](CCC(=O)O)C(=O)NC(C)(C)C(=O)NCC(N)=O) [Peptide 515] |
